This is an account of results in PMC3827234.

This test addresses hamster integrin αv subunit, endogenous in CHO cells (Chinese hamster (endogenous in CHO)). Description: flow cytometry on cells; CHO cells transiently transfected with the β3 plasmid alone, harvested after 48 h; the chimeric complex of human β3 and hamster αv on the cell surface was stained with FITC anti-αvβ3 (LM609; Figure 2C) or with the monoclonal antibody to β3 (Figure 2D); read-out is the percentage of positive cells.

As to “integrin β3 subunit with the Pro189Ser substitution (P163S in the mature protein) (from UniProt P05106 27-788) (receptor)”, the percent of the level of the WTβ3-hamster αv complex (LM609 staining) was determined as 78%.
